According to patent publication US20060003407A1 (Biogen, published 2006):

T1: TACI on TACI+ expressing IM9 cell line (UniProt O14836 1-293, limits assumed)
T1 construct: whole, on cells; also called TACI+IM9 cells; TACI+ in IM9 cells
T1 sequence (looked up): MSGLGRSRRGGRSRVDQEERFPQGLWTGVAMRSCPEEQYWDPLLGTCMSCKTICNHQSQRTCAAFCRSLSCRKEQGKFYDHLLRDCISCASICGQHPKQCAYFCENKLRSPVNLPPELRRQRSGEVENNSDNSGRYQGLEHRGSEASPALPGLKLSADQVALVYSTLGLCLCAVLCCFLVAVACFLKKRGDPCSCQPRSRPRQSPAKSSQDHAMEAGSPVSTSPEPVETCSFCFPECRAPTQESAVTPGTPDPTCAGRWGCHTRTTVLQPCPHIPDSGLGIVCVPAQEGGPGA

B1: truncated human APRIL ligand polypeptide encoded by amino acid residues 105-250 of SEQ ID NO: 6 (ligand, not shown: small tags and cut ends)
chain: AVLTQKQKKQHSVLHLVPINATSKDDSDVTEVMWQPALRRGRGLQAQGYGVRIQDAGVYLLYSQVLFQDVTFTMGQVVSREGQGRQETLFRCIRSMPSHPDRAYNSCYSAGVFHLHQGDILSVIIPRARAKLNLSPHGTFLGFVKL
notes: also called longer truncate of human APRIL ligand polypeptide
B2: FLAG-tagged truncated human APRIL ligand polypeptide (amino acids 115-250 of SEQ ID NO: 6) (ligand, not shown: small tags and cut ends)
chain: HSVLHLVPINATSKDDSDVTEVMWQPALRRGRGLQAQGYGVRIQDAGVYLLYSQVLFQDVTFTMGQVVSREGQGRQETLFRCIRSMPSHPDRAYNSCYSAGVFHLHQGDILSVIIPRARAKLNLSPHGTFLGFVKL
notes: Expressed in 293T cells; Tested both purified (anti-FLAG M1, SP Sepharose, Superdex 200) and unpurified in cell medium (SN); also called FLAGhuAPRIL purified; FLAGhuAPRIL SN

Assays:
[1] = target: T1, TACI on TACI+ expressing IM9 cell line; test: FACS on TACI+IM9 cells, 1 to 50 ng/mL ligand; the filing calls a major component of this binding nonspecific
[2] = target: T1, TACI on TACI+ expressing IM9 cell line; test: FACS on TACI+IM9 cells, 1 to 50 ng/mL ligand

| Binder | binding result [1] | binding result [2] |
| --- | --- | --- |
| B1 | binds |  |
| B2 |  | binds |
